B1: BS1 (ssRNA)
RNA: CUCUUUG
B2: mutBS1 (ssRNA)
RNA: CCUCCCA
B3: AGCUUUG (ssRNA)
RNA: AGCUUUG
B4: RBM39 RRM3 (domain or fragment)
chain: VQPLATQCFQLSNMFNPQTEEEVGWDTEIKDDVIEECNKHGGVIHIYVDKNSAQGNVYVKCPSIAAAIAAVNALHGRWFAGKMITAAYVPLPTYHNLFPDSMTATQLLVPSRR
modifications: Construct limits not printed (cited paper); 418-530 is the customary RRM3/UHM construct, covering the annotated RRM3 445-508 and the C-terminus
B5: RBM39 mRRM3 (domain or fragment)
chain: VQPLATQCFQLSNMFNPQTEEEVGWDTEIKDDVIEECNKHGGVIHIYVDKNSAQGNVYVKCPSIAAAIAAVNALHGAWAAGKMITAAYVPLPTYHNLFPDSMTATQLLVPSRR
modifications: Construct limits not printed (cited paper); same conventional limits as wild-type RRM3

Assays:
RBM39 RRM2 [1] = molecular target: T1, RBM39 RRM2 (UniProt Q14498 250-328); experiment: NMR titration; ITC: RRM2/RRM12 in 10 mM Na phosphate pH 6.8, 50 mM NaCl, 2 mM DTT; RRM1 in the same at pH 5.5; 40 C (RRM12 with ssSL3 at 35 C); NMR 200 uM protein in the same; conditions: protein: recombinant; tags: His tag removed by thrombin
T1 sequence: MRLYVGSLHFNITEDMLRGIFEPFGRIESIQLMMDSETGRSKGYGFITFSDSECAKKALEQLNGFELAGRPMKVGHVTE

RBM39 RRM2 [2] = molecular target: T1, RBM39 RRM2; experiment: ITC; n=1.18; ITC: RRM2/RRM12 in 10 mM Na phosphate pH 6.8, 50 mM NaCl, 2 mM DTT; RRM1 in the same at pH 5.5; 40 C (RRM12 with ssSL3 at 35 C); NMR 200 uM protein in the same; conditions: protein: recombinant; tags: His tag removed by thrombin
RBM39 RRM2 F259A = molecular target: T2, RBM39 RRM2 F259A (UniProt Q14498 250-328, F259A); experiment: ITC; n=1.27; ITC: RRM2/RRM12 in 10 mM Na phosphate pH 6.8, 50 mM NaCl, 2 mM DTT; RRM1 in the same at pH 5.5; 40 C (RRM12 with ssSL3 at 35 C); NMR 200 uM protein in the same; conditions: protein: recombinant
T2 sequence: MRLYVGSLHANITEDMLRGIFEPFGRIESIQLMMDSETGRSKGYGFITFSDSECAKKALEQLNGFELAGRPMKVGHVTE

[3] = molecular target: T3, SF3b155 ULM peptide KSRWDETP; experiment: ITC; PEAQ-ITC (Malvern); Buffer G (sodium phosphate 10 mM pH 7.2, NaCl 50 mM, TCEP 0.5 mM); protein 300 μM in the syringe, ligand (peptide) 30 μM in the cell; conditions: both partners purified
T3 construct: ULM (UHM ligand motif) of SF3b155 (SF3B1)
T3 peptide: KSRWDETP

Binder	binding result (RBM39 RRM2 [1])	Kd [3] [µM]	also measured
B1	binds	–	–
B2	no binding	–	–
B3	–	–	Kd (RBM39 RRM2 [2]): 9 ± 2 µM; Kd (RBM39 RRM2 F259A): 41 ± 10 µM
B4	–	19 ± 5	dH [3]: -20 kcal/mol; stoichiometry N [3]: 0.65
B5	–	> 100	–
